Measurements taken from US20250345423A1 (IMUNEXUS THERAPEUTICS, published 2025).
Blank lines part the entries; values can stand above or below the binder they belong to.

Tests used:
[1] = target: T1, human recombinant Sclerostin (rhSOST, R&D systems 1406-ST-025/CF) (human, UniProt Q9BQB4 24-213); assay: in-cell ELISA on transfected HEK293 cells, anti-SOST primary antibody, versus mock transfection
T1 sequence (looked up): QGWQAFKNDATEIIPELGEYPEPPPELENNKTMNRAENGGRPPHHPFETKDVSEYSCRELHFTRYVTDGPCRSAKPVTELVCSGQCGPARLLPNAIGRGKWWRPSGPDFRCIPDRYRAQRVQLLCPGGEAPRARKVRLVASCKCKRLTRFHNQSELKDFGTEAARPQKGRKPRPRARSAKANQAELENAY
Experimental: The remainder of the protocol was identical for both cell types. One day before transfection, cells were plated on 96-well microtiter plates that had previously been coated with Poly-D-Lysine (PDL, Gibco, Cat. No. A38904-01) according to the manufacturer's instructions. The ideal cell density for subsequent transfection and in-cell ELISA was empirically determined to be 10,000 cells per well at time of seeding. The day after plating, cells were transfected using the Lipofectamine 3000 transfection kit (Invitrogen, Cat. No. L3000-008). The ideal amount of DNA and Lipofectamine per well was empirically determined to be 100 ng (HEK cells) or 200 ng (CHO cells) of DNA and 0.15 μl of Lipofectamine 3000. Transfections were performed according to the manufacturer's instructions.
All in-cell ELISA experiments were carried out in 96-well microtiter plates. […]

[2] = target: T2, CD80 expressed on Raji cells (UniProt P33681 35-288); assay: cell-to-cell binding: Raji cells on transfected bMSCs (summary of Example 2)
T2 construct: whole, on cells; also called Raji cells expressing CD80; B7-1 on Raji cells
T2 sequence (looked up): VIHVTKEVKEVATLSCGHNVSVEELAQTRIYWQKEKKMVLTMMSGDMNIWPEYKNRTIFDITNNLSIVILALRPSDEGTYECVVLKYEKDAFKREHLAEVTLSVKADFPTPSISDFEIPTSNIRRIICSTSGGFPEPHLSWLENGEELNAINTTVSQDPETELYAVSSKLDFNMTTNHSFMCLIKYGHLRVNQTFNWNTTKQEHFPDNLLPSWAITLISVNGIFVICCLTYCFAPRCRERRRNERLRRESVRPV
Experimental: The required number of Raji cells (100,000 cells for each assay well) were centrifuged and resuspended in an appropriate volume of MSCBM (100 μl/100,000 cells), and the cell suspension was added to the wells containing bMSCs. Plates were incubated for 1 h at RT before the wells were very carefully washed 3× with D-PBS. In-cell ELISA assays were carried out two days after transfection with CTLA-4 BD plasmid DNA. The cell supernatant was aspirated, cells were washed 3× with 300 μl D-PBS (137 mM NaCl, 8.1 mM Na₂HPO₄, 2.68 mM KCl, 1.47 mM KH₂PO₄, 0.9 mM CaCl₂), 0.5 mM MgCl₂), and then fixed by adding 50 μl of a formaldehyde solution (4% in PBS, for example Santa Cruz Biotechnology, Cat. No. SANTS-281692). After 15-20 minutes of incubation at RT, the solution was aspirated and cells were washed 3× with 300 μl D-PBS-T (D-PBS containing 0.05% (w/V) Tween-20). Wells were blocked by incubating with 300 μl of 5% skim milk in D-PBS-T for 1 h at RT. The blocking buffer was aspirated and wells were washed with 3×300 μl D-PBS-T before adding 50 μl of the primary antibody diluted in D-PBS-T (see Table 1 for antibodies and their respective dilutions). […] After 5-15 minutes the reaction was stopped by adding 100 μl 1 M HCl, and absorbance at a wavelength of 450 nm was measured using a micro plate reader. […]

[3] = target: T3, human B7-1 (CD80) protein (Acro Biosystems, B71-H5259) (human, UniProt P33681 35-242); assay: in-cell ELISA on transfected bMSCs, anti-CD80 primary antibody, versus control transfection
T3 sequence (looked up): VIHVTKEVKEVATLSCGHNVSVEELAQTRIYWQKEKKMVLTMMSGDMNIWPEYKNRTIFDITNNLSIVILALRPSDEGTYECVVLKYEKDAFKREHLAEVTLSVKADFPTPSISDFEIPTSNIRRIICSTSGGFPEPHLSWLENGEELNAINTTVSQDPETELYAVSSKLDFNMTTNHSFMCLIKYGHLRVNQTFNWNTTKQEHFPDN
Experimental: Cells were plated on a 96-well plate at a density of 10,000 cells per well. The in-cell ELISA was performed the following day.
All in-cell ELISA experiments were carried out in 96-well microtiter plates. For assays in which the primary antibody was directed against the ligand of the CTLA-4 binding domain, the supernatant of cells expressing the CTLA-4 BD was aspirated, replaced with medium containing the ligand (rhSOST (R&D systems 1406-ST-025/CF) or B7-1/CD80 protein (Acro Biosystems, B71-H5259) at varying concentrations, and incubated for 1 h at RT. For assays in which binding of B-lymphocytes to cells expressing the CTLA-4 binding domain was to be assessed, cells from a lymphoblast-like cell line (Raji cells) were used. The required number of Raji cells (100,000 cells for each assay well) were centrifuged and resuspended in an appropriate volume of MSCBM (100 μl/100,000 cells), and the cell suspension was added to the wells containing bMSCs. Plates were incubated for 1 h at RT before the wells were very carefully washed 3× with D-PBS. In-cell ELISA assays were carried out two days after transfection with CTLA-4 BD plasmid DNA. […]

- binding result [1]: binds
B1: BD_SOST (CTLA-4 binding domain directed against human sclerostin), displayed on the cell surface from the display vector (designed binder)
chain: KAMHVAQPAVVLASSRGIASFVCEYTVSWVDMEVRVTVLRQADSQVTEVCAATYWNGRWLTFLDDSICTGTSSGNQVNLTIQGLRAMDTGLYICKVQLDPSWGYYWQGYEGIGNGTQIYVIDPEPSPDSNAGGGGSGGGGSGGGGSAEQKLISEEDLNAVGQDTQEVIVVPHSLPFKVVVISAILALVVLTIISLIILIMLWQKKPR

- binding result [2]: binds
- binding result [3]: binds
B2: BD_B7 (CTLA-4 binding domain directed against B7.1 (CD80)), displayed on the cell surface from the display vector (designed binder)
chain: KAMHVAQPAVVLASSRGIASFVCEYASPGKYTEVRVTVLRQADSQVTEVCAATYMTGNELTFLDDSICTGTSSGNQVNLTIQGLRAMDTGLYICKVELMYPPPYYLGIGNGTQIYVIDPEPSPDSNAGGGGSGGGGSGGGGSAEQKLISEEDLNAVGQDTQEVIVVPHSLPFKVVVISAILALVVLTIISLIILIMLWQKKPR
notes: also called CTLA-4 BD directed against B7-1
